The chains are these.
B1: FBXO39 (parent)
chain: RVFKARIYTNRYETNEEDKTLQEI

Here are results for 94 variants from the supplement of paper PMC10567573.
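Also: lentivirally expressed fusions sorted by FACS into six bins by GFP to DsRed ratio, PSI derived from sequencing read proportions per bin multiplied by bin number.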

The variants in this data set derive from B1. As to the kind of experiment: protein stability index of a GFP-peptide fusion (GPS, HEK-293T) (PSI 1-6); higher = more stable. The following applies: c terminus: a fixed tail appended.
RVFKARIYTNRYETNEWDKTLQEI [E17W]: the protein stability index is 2.27.

As to RVFKARIYTNRYETNEYDKTLQEI [E17Y], the protein stability index worked out at 2.72. As for RVFKARIYTNRYETNEEDKTLGEI [Q22G], the figure is 3.19; as for RVFKARIYTNRYETNEEDKTLLEI [Q22L], 2.33. For the variant RVFKARIYTNRYETNEEDKTLFEI [Q22F], the protein stability index worked out at 1.76. As for RVFKARIYTNRYETNEEDKTLREI [Q22R], the figure is 2.91; as for RVFKARIYTNRYETNEEDKTLIEI [Q22I], 1.4; as for RVFKARIYTNRYETNEEDKTLNEI [Q22N], 2.49. In the case of RVFKARIYTNRYETNEEDKTLHEI [Q22H], the protein stability index turned out to be 1.64.

For the variant RVFKARIYTNRYETNEEDKTLYEI [Q22Y], the protein stability index amounted to 2.6. As for RVFKARIYTNRYETNEEDKTLMEI [Q22M], the figure is 2.5; as for RVFKARIYTNRYETNEEDKTLAEI [Q22A], 3.02; as for RVFKARIYTNRYETNEEDKTLDEI [Q22D], 3. With RVFKARIYTNRYETNEEDKTLWEI [Q22W] the figure was 1.79; with RVFKARIYTNRYETNEEDKTLTEI [Q22T], 1.98; with RVFKARIYTNRYETNEEDKTLKEI [Q22K], 2.38. With RVFKARIYTNRYETNEEDKTLCEI [Q22C] the figure was 3.48; with RVFKARIYTNRYETNEEDKTLVEI [Q22V], 1.75; with RVFKARIYTNRYETNEEDKTLSEI [Q22S], 1.12. On to RVFKARIYTNRYETNEESKTLQEI [D18S], for which the protein stability index stood at 1.71.

As to RVFKARIYTNRYETNEEHKTLQEI [D18H], the protein stability index was 2.16. As for RVFKARIYTNRYETNEEIKTLQEI [D18I], the figure is 2.68; as for RVFKARIYTNRYETNEEMKTLQEI [D18M], 2.22.

Consider RVFKARIYTNRYETNEERKTLQEI [D18R], for which the protein stability index is 2.38. With RVFKARIYTNRYETNEEEKTLQEI [D18E] the figure was 2.48; with RVFKARIYTNRYETNEENKTLQEI [D18N], 2.25.

RVFKARIYTNRYETNEELKTLQEI [D18L]: the protein stability index stood at 2.46. As for RVFKARIYTNRYETNEEAKTLQEI [D18A], the figure is 3.19; as for RVFKARIYTNRYETNEEPKTLQEI [D18P], 2.56; as for RVFKARIYTNRYETNEEWKTLQEI [D18W], 2.18. As for RVFKARIYTNRYETNEEFKTLQEI [D18F], the figure is 1.67. As for RVFKARIYTNRYETNEETKTLQEI [D18T], the figure is 2.36; as for RVFKARIYTNRYETNEEGKTLQEI [D18G], 2.53. For the variant RVFKARIYTNRYETNEEYKTLQEI [D18Y], the protein stability index is 2.78. With RVFKARIYTNRYETNEEQKTLQEI [D18Q] the figure was 2.78; with RVFKARIYTNRYETNEECKTLQEI [D18C], 2.33. As to RVFKARIYTNRYETNEEVKTLQEI [D18V], the protein stability index turned out to be 2.4. On to RVFKARIYTNRYETNEEKKTLQEI [D18K], for which the protein stability index turned out to be 2.7. As for RVFKARIYTNRYETNEEDKTLQCI [E23C], the figure is 2.13. As for RVFKARIYTNRYETNEEDKTNQEI [L21N], the figure is 3.26; as for RVFKARIYTNRYETNEEDKTKQEI [L21K], 2.5; as for RVFKARIYTNRYETNEEDKTRQEI [L21R], 2.97. With RVFKARIYTNRYETNEEDKTQQEI [L21Q] the figure was 3.18; with RVFKARIYTNRYETNEEDKTYQEI [L21Y], 1.99; with RVFKARIYTNRYETNEEDKTWQEI [L21W], 2.5. As for RVFKARIYTNRYETNEEDKTGQEI [L21G], the protein stability index came out at 3.2.

With RVFKARIYTNRYETNEEDKTVQEI [L21V], the protein stability index was 2.86. Regarding RVFKARIYTNRYETNEEDKTAQEI [L21A], the protein stability index worked out at 2.9. Turning to RVFKARIYTNRYETNEEDKTSQEI [L21S], the protein stability index was found to be 2.93. With RVFKARIYTNRYETNEEDKTFQEI [L21F] the figure was 2.52; with RVFKARIYTNRYETNEEDKTMQEI [L21M], 3.24. As for RVFKARIYTNRYETNEEDKTEQEI [L21E], the figure is 3.38; as for RVFKARIYTNRYETNEEDKTDQEI [L21D], 3.88; as for RVFKARIYTNRYETNEEDKTPQEI [L21P], 3.27. With RVFKARIYTNRYETNEEDKTIQEI [L21I] the figure was 2.62; with RVFKARIYTNRYETNEEDKTCQEI [L21C], 2.21. Consider RVFKARIYTNRYETNEEDKTTQEI [L21T], for which the protein stability index was 2.97.

On to RVFKARIYTNRYETNEEDKTHQEI [L21H], for which the protein stability index worked out at 3.76. With RVFKARIYTNRYETNEEDKYLQEI [T20Y] the figure was 2.17; with RVFKARIYTNRYETNEEDKFLQEI [T20F], 2.74; with RVFKARIYTNRYETNEEDKPLQEI [T20P], 2.73. As for RVFKARIYTNRYETNEEDKLLQEI [T20L], the figure is 2.38. As for RVFKARIYTNRYETNEEDKKLQEI [T20K], the protein stability index stood at 2.53. In the case of RVFKARIYTNRYETNEEDKMLQEI [T20M], the protein stability index is 3.06. In the case of RVFKARIYTNRYETNEEDKGLQEI [T20G], the protein stability index turned out to be 1.79. As for RVFKARIYTNRYETNEEDKVLQEI [T20V], the figure is 3.47; as for RVFKARIYTNRYETNEEDKDLQEI [T20D], 3.48; as for RVFKARIYTNRYETNEEDKRLQEI [T20R], 2.77. With RVFKARIYTNRYETNEEDKALQEI [T20A] the figure was 2.87; with RVFKARIYTNRYETNEEDKWLQEI [T20W], 2.49.

For RVFKARIYTNRYETNEEDKILQEI [T20I], the protein stability index was 1.76. With RVFKARIYTNRYETNEEDKELQEI [T20E] the figure was 2.53; with RVFKARIYTNRYETNEEDKQLQEI [T20Q], 2.78. With RVFKARIYTNRYETNEEDKCLQEI [T20C] the figure was 2.55; with RVFKARIYTNRYETNEEDKSLQEI [T20S], 3.2.

Take RVFKARIYTNRYETNEEDKNLQEI [T20N]: the protein stability index came to 2.57.

As to RVFKARIYTNRYETNEEDITLQEI [K19I], the protein stability index is 2.58. As for RVFKARIYTNRYETNEEDETLQEI [K19E], the figure is 3.84. As for RVFKARIYTNRYETNEEDYTLQEI [K19Y], the figure is 2.57. As for RVFKARIYTNRYETNEEDCTLQEI [K19C], the figure is 3.04; as for RVFKARIYTNRYETNEEDVTLQEI [K19V], 2.62; as for RVFKARIYTNRYETNEEDHTLQEI [K19H], 2.92. Regarding RVFKARIYTNRYETNEEDSTLQEI [K19S], the protein stability index amounted to 3.39.

As to RVFKARIYTNRYETNEEDMTLQEI [K19M], the protein stability index stood at 2.3. Take RVFKARIYTNRYETNEEDFTLQEI [K19F]: the protein stability index was determined as 2.61. With RVFKARIYTNRYETNEEDGTLQEI [K19G] the figure was 3.62; with RVFKARIYTNRYETNEEDQTLQEI [K19Q], 3.23; with RVFKARIYTNRYETNEEDWTLQEI [K19W], 2.54.

As to RVFKARIYTNRYETNEEDRTLQEI [K19R], the protein stability index came to 4. Turning to RVFKARIYTNRYETNEEDPTLQEI [K19P], the protein stability index amounted to 2.91.

Take RVFKARIYTNRYETNEEDLTLQEI [K19L]: the protein stability index was 2.44. As for RVFKARIYTNRYETNEEDATLQEI [K19A], the figure is 2.15; as for RVFKARIYTNRYETNEEDTTLQEI [K19T], 2.79. On to RVFKARIYTNRYETNEEDNTLQEI [K19N], for which the protein stability index is 2.83.
